The values that follow come from patent publication US20170037111A1, “Novel peptides and combination of peptides for use in immunotherapy against ovarian cancer and other cancers” (immatics biotechnologies GmbH, priority 2015, published 2017).

This experiment deals with HLA-A*02:01 (Homo sapiens, UniProt P04439, D140Y/D185E/D98H/E176V/E277Q/G131W/G231S/I119V/I121R/I166T/I218V/L300P/L318F/N151K/N90K/P208A/P217A/Q86G/Q94H/R138H/R169H/T345S). The experiment is described as follows: MHC binding assay (UV-ligand exchange, β2m ELISA, peptide exchange yield). The settings on record: MHC class I binding score; binding to HLA-A*02:01 ranged by peptide exchange yield (UV-ligand exchange, β2m ELISA). An excerpt:
Candidate peptides for T cell based therapies according to the present invention were further tested for their MHC binding capacity (affinity). The individual peptide-MHC complexes were produced by UV-ligand exchange, where a UV-sensitive peptide is cleaved upon UV-irradiation, and exchanged with the peptide of interest as analyzed. Only peptide candidates that can effectively bind and stabilize the peptide-receptive MHC molecules prevent dissociation of the MHC complexes. To determine the yield of the exchange reaction, an ELISA was performed based on the detection of the light chain (β2m) of stabilized MHC complexes. The assay was performed as generally described in Rodenko et al. (Rodenko et al., 2006).
96 well MAXISorp plates (NUNC) were coated over night with 2 ug/ml streptavidin in PBS at room temperature, washed 4× and blocked for 1h at 37° C. in 2% BSA containing blocking buffer. […] Peptide-MHC monomers of the UV-exchange reaction were diluted 100 fold in blocking buffer. Samples were incubated for 1h at 37° C., washed four times, incubated with 2 ug/ml HRP conjugated anti-β2m for 1h at 37° C., washed again and detected with TMB solution that is stopped with […]. Absorption was measured at 450 nm. Candidate peptides that show a high exchange yield (preferably higher than 50%, most preferred higher than 75%) are generally preferred for a generation and production of antibodies or fragments thereof, and/or T cell receptors or fragments thereof, as they show sufficient avidity to the MHC molecules and prevent dissociation of the MHC complexes.

Regarding “87 (ALPEAPAPLLPHIT; listed as Homo sapiens) [compound 87]”, the Peptide exchange result was “″++″ (≧20% = ++)”.
Turning to “88 (FLLVGDLMAV; listed as Homo sapiens) [compound 88]”, the Peptide exchange entry is given as “″+++″ (≧50% = +++)”.
For “89 (YILPTETIYV; listed as Homo sapiens) [compound 89]”, the Peptide exchange result is “″++++″ (≧75% = ++++)”.
As to “90 (TLLQIIETV; listed as Homo sapiens) [compound 90]”, the Peptide exchange result was “″+++″ (≧50% = +++)”.
On to “91 (IMQDFPAEIFL; listed as Homo sapiens) [compound 91]”, for which the Peptide exchange result is on record as “″++++″ (≧75% = ++++)”.
For the substance “92 (YLIPFTGIVGL; listed as Homo sapiens) [compound 92]”, the Peptide exchange result is listed as “″++″ (≧20% = ++)”.
Next, “93 (LLQAIKLYL; listed as Homo sapiens) [compound 93]”: “″++″ (≧20% = ++)”; “94 (YLIDIKTIAI; listed as Homo sapiens) [compound 94]”: “″++″ (≧20% = ++)”.
Turning to “95 (SVIPQIQKV; listed as Homo sapiens) [compound 95]”, the Peptide exchange result is reported as “″+++″ (≧50% = +++)”.
Next, “96 (YIFTDNPAAV; listed as Homo sapiens) [compound 96]”: “″+++″ (≧50% = +++)”; “97 (SLINGSFLV; listed as Homo sapiens) [compound 97]”: “″+++″ (≧50% = +++)”.
“98 (LIIDQADIYL; listed as Homo sapiens) [compound 98]”: the Peptide exchange result is recorded as “″+++″ (≧50% = +++)”.
Take “99 (ALVSKGLATV; listed as Homo sapiens) [compound 99]”: the Peptide exchange result is reported as “″++″ (≧20% = ++)”.
On to “100 (YLLSTNAQL; listed as Homo sapiens) [compound 100]”, for which the Peptide exchange entry is “″++++″ (≧75% = ++++)”.
As for “101 (ILVGGGALATV; listed as Homo sapiens) [compound 101]”, the Peptide exchange result is recorded as “″+++″ (≧50% = +++)”.
Consider “102 (YLFESEGLVL; listed as Homo sapiens) [compound 102]”, for which the Peptide exchange result was “″+++″ (≧50% = +++)”.
Next, “103 (TLAEEVVAL; listed as Homo sapiens) [compound 103]”: “″+++″ (≧50% = +++)”; “104 (STMEQNFLL; listed as Homo sapiens) [compound 104]”: “″++++″ (≧75% = ++++)”; “106 (LLYDAVHIVSV; listed as Homo sapiens) [compound 106]”: “″+++″ (≧50% = +++)”.
Turning to “107 (FLQPVDDTQHL; listed as Homo sapiens) [compound 107]”, the Peptide exchange entry is on record as “″+++″ (≧50% = +++)”.
For “109 (IILSILEQA; listed as Homo sapiens) [compound 109]”, the Peptide exchange entry is “″++++″ (≧75% = ++++)”.
For the substance “110 (FLSQVDFEL; listed as Homo sapiens) [compound 110]”, the Peptide exchange result is listed as “″+++″ (≧50% = +++)”.
With “111 (YVWGFYPAEV; listed as Homo sapiens) [compound 111]”, the Peptide exchange entry was “″+++″ (≧50% = +++)”.
Next, “114 (SLVGEPILQNV; listed as Homo sapiens) [compound 114]”: “″++″ (≧20% = ++)”; “115 (AIAGAGILYGV; listed as Homo sapiens) [compound 115]”: “″++″ (≧20% = ++)”; “116 (YHIDEEVGF; listed as Homo sapiens) [compound 116]”: “″+″ (≧10% = +)”.
With “117 (ILPDGEDFLAV; listed as Homo sapiens) [compound 117]”, the Peptide exchange entry is given as “″+++″ (≧50% = +++)”.
Turning to “119 (FLYIGDIVSL; listed as Homo sapiens) [compound 119]”, the Peptide exchange result is listed as “″++++″ (≧75% = ++++)”.
Turning to “120 (ALLGIPLTLV; listed as Homo sapiens) [compound 120]”, the Peptide exchange entry is “″+++″ (≧50% = +++)”.
In the case of “121 (GVVDPRAISVL; listed as Homo sapiens) [compound 121]”, the Peptide exchange result is listed as “″++″ (≧20% = ++)”.
Take “122 (FLLAEDDIYL; listed as Homo sapiens) [compound 122]”: the Peptide exchange result is on record as “″+++″ (≧50% = +++)”.
On to “123 (NLWDLTDASVV; listed as Homo sapiens) [compound 123]”, for which the Peptide exchange result is listed as “″+++″ (≧50% = +++)”.
Next, “124 (ALYETELADA; listed as Homo sapiens) [compound 124]”: “″++″ (≧20% = ++)”.
With “125 (VQIHQVAQV; listed as Homo sapiens) [compound 125]”, the Peptide exchange entry is given as “″+++″ (≧50% = +++)”.
As to “126 (VLAYFLPEA; listed as Homo sapiens) [compound 126]”, the Peptide exchange entry is recorded as “″++++″ (≧75% = ++++)”.
Turning to “127 (KIGDEPPKV; listed as Homo sapiens) [compound 127]”, the Peptide exchange entry is on record as “″++″ (≧20% = ++)”.
“128 (YLFDDPLSAV; listed as Homo sapiens) [compound 128]”: the Peptide exchange result is “″++″ (≧20% = ++)”.
With “129 (GLLDGGVDILL; listed as Homo sapiens) [compound 129]”, the Peptide exchange result is “″+++″ (≧50% = +++)”.
Next, “130 (FLWNGEDSALL; listed as Homo sapiens) [compound 130]”: “″+++″ (≧50% = +++)”.
Turning to “131 (FVPPVTVFPSL; listed as Homo sapiens) [compound 131]”, the Peptide exchange entry is reported as “″++″ (≧20% = ++)”.
Take “132 (LLVEQPPLAGV; listed as Homo sapiens) [compound 132]”: the Peptide exchange entry was “″+++″ (≧50% = +++)”.
With “133 (KVLSNIHTV; listed as Homo sapiens) [compound 133]”, the Peptide exchange entry is on record as “″++″ (≧20% = ++)”.
Next, “134 (YLQELIFSV; listed as Homo sapiens) [compound 134]”: “″+++″ (≧50% = +++)”; “135 (ALSEVDFQL; listed as Homo sapiens) [compound 135]”: “″+++″ (≧50% = +++)”; “136 (YLADPSNLFVV; listed as Homo sapiens) [compound 136]”: “″+++″ (≧50% = +++)”.
Regarding “137 (TLVLTLPTV; listed as Homo sapiens) [compound 137]”, the Peptide exchange result is reported as “″++++″ (≧75% = ++++)”.
Turning to “138 (YQYPRAILSV; listed as Homo sapiens) [compound 138]”, the Peptide exchange result is given as “″+++″ (≧50% = +++)”.
Regarding “139 (SVMEVNSGIYRV; listed as Homo sapiens) [compound 139]”, the Peptide exchange entry was “″+++″ (≧50% = +++)”.
“140 (YMDAPKAAL; listed as Homo sapiens) [compound 140]”: the Peptide exchange entry is given as “″++″ (≧20% = ++)”.
Regarding “142 (FLFATPVFI; listed as Homo sapiens) [compound 142]”, the Peptide exchange result is “″+++″ (≧50% = +++)”.
Consider “144 (YIMEPSIFNTL; listed as Homo sapiens) [compound 144]”, for which the Peptide exchange entry is given as “″+++″ (≧50% = +++)”.
On to “145 (FLATSGTLAGI; listed as Homo sapiens) [compound 145]”, for which the Peptide exchange entry is “″++″ (≧20% = ++)”.
As for “146 (SLATAGDGLIEL; listed as Homo sapiens) [compound 146]”, the Peptide exchange entry was “″++″ (≧20% = ++)”.
With “147 (SLLEAVSFL; listed as Homo sapiens) [compound 147]”, the Peptide exchange result is recorded as “″+++″ (≧50% = +++)”.
Turning to “148 (ALNPEIVSV; listed as Homo sapiens) [compound 148]”, the Peptide exchange result is on record as “″++″ (≧20% = ++)”.
For the substance “149 (NLLELFVQL; listed as Homo sapiens) [compound 149]”, the Peptide exchange result is reported as “″+++″ (≧50% = +++)”.
Next, “151 (KILQQLVTL; listed as Homo sapiens) [compound 151]”: “″+++″ (≧50% = +++)”; “153 (FLIANVLYL; listed as Homo sapiens) [compound 153]”: “″+″ (≧10% = +)”; “154 (ALDDGTPAL; listed as Homo sapiens) [compound 154]”: “″++″ (≧20% = ++)”.
As to “155 (RVANLHFPSV; listed as Homo sapiens) [compound 155]”, the Peptide exchange entry was “″+++″ (≧50% = +++)”.
Consider “158 (KLFDVDEDGYI; listed as Homo sapiens) [compound 158]”, for which the Peptide exchange entry is listed as “″+++″ (≧50% = +++)”.
“159 (GLVGNPLPSV; listed as Homo sapiens) [compound 159]”: the Peptide exchange entry is “″++++″ (≧75% = ++++)”.
For the substance “160 (FLFDEEIEQI; listed as Homo sapiens) [compound 160]”, the Peptide exchange entry is on record as “″+++″ (≧50% = +++)”.
“161 (ALLEGVNTV; listed as Homo sapiens) [compound 161]”: the Peptide exchange entry is on record as “″+++″ (≧50% = +++)”.
